Assay: yeast display, Sf9 membrane polyspecificity reagent, FACS + sequencing; frameworks hold sequencing errors
In short: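 Nanobodies from a synthetic yeast display library (Saccharomyces cerevisiae BJ5465), induced 36–48 hours with galactose, were stained 1 hour at 4 °C with 10% biotinylated, detergent-solubilized Sf9 membrane reagent, enriched on streptavidin microbeads, then FACS-sorted. Anti-HA (expression) and streptavidin (reagent binding) fluorescence set low and high (top ~1%) gates. Polyreactivity labels come from the gate of origin. Genes were colony-PCR amplified, MiSeq 2 × 250 sequenced and filtered by CDR length.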

| Sequence | polyreactivity (PSR sort gate) |
| --- | --- |
| QVQLVESGAGLVQAGGSLRLSCAASGSIINRNAMGGYRQAPGKERELVAAITRRGGSTYYADSVKGRFTISRDNAKNTVYLQKYSLKPEDTAVYYCNAVKALSSWSYEYWGQGTQGTVSS | high polyreactivity |
| QVQLVESGGGLVQAGGSLRLSCAASGPISAIYDMGWYRQAPGKEREVVAAISGGTSTYYADSVKGRFTISRDNAKNTVYLQMNSLKPEDTAVYYCNAEASSYHGVEDEYDYWGQGTQVTVSS | low polyreactivity |
| QVQLVESGGGLVQAGGSLRLSCAASGSIFWWNAMGWYRQAPGKERELVAAISYSGGSTYYADSVKGRFTISRDNAKKTVYLQRNSLKPEDTAVYYCAATKFRYYGYDYWGQGTQVTVSS | low polyreactivity |
| QVQLVESGGGLVQAGGSLRLSCAASGIIFYWNAMGWYRHAPGKERELVAGITRGGSTYYADSVKGRFTISRDNAKNTVYLQMNSLKPEDTAVYYCAKRHASRRVSYSRYDYWGQGTQVTVSS | high polyreactivity |
| QVQLVESGGGLVQAGGSLRLSCAASGRTFRVYAMGWYRQAPGKERELVAAIRTDDSTNYADSVKGRFTISRDNAKNTVYLQMNSLKPEDTAVYYCNAEGQFTWLGRRRHKFEYWGQGTQVTVSS | low polyreactivity |
| QVQLVESGGCLVQAGGSLRLSCAASGSTFGYYAMGWYRQAPGKERELVAAITSNDGSTHYADSVKGRFTISRDNAKNTVYLQMNSLKPEDTEVYYCNARSFVAVISSFVYWGQGTQVTVSS | low polyreactivity |
| QFQLVESGGGLFQAGGSLRLSCAAYGRISLRNGMGWYRQAPGKERELVAAISRGGSTYYADSVKGRFTISRDNAKNTVYLQMNSLKPEDTAVYYCNADIRPIYGDDDYWGQSTQVTVSS | low polyreactivity |
| QVQLVESGGGLVQAGGSLRLSCAASGSIFFTYAMGWYRQEPGKERELVAAINSSGGSTYYADSVKGRFTISRDNAKNTVYLQMNSLKPEDTAVYYCAAYRYWSTPRYYWGQGTQVTVSS | high polyreactivity |
| QVQLVESGGGLVQAGGSLRLSCAASGSTFTWYAMGWYRQAPGKERELVADISYGGGSTYYADSVKGRFTISRDNAKNTVYLPMNSLKPEDTAVYYCAAESIPYYRYDYWGQGTQVTVSS | low polyreactivity |
| QVQLVESGGGLVQAGVSLRLSCAASGFISPKYGMGWYRQAPGKERELVAAITSSGGSTYYADSVKGRFTISRDNAKNTVYLQMNSLKPEDTAVYYCATRQVSRLYPYRYNYWGQGTQVTVSS | high polyreactivity |
| QLQLVESGGGLVQAGGSLRLSCAASGSILYIKTMGWYRQAPGKERELVAAITYSGGSTYYADAVKGRFTISRDNAKNTVYLQMTSLKPEDTAVYYCAADGYYGGFNYWGQGTQVTVSS | low polyreactivity |
| QVQLVQSGGRLVQAGGSLRLSCAASGLIFVHYTMGWYRQAPGKERELVASINSGGSTNYADSVKGRFTISRDNAKNTVYLQMISLKPEDTAVYYCADRRVVFWRRMYYWGQGTQVTVSS | high polyreactivity |
| QVQIVESGGGLVQAGGSLRLSCAASGSTFVDYDMGWYRQAPGKERELVAGITTGGSTNYADSVKGRFTISRDNAKNTVYLQMNRLKPEDTAVYYCAATVYGIYYYGRDRYDYWGQATQVTVSS | low polyreactivity |
| QVQLVESGGGLVQAGGSLRLSCAASGLTFIYYAMGWYRQAPGKEREMVAAISTSGASTYYADSVKGRFTISRDNAKNTVYLQMNSLKPEVSAVYYCNGEYFGEYRDYGYWGQGTLVTVSS | low polyreactivity |
| QVQLVESGGGLVQAGGSLRLSCAASGRIFYRYAMGWYRQAPGKERELVASITRSGITHYADSVKGRFTISRDNAKNTVYLQMNSLKPEDTAVYYCNARRGSPAPYDYWGQGTQVTVSS | high polyreactivity |
| QVQLVESGGGLVQAGGSLRLSCAASGRTFYVNARGWYREAPGKERELVATISRGTRTYYADSVKGRFTISRDNAKNTVYLQMNSLIPEDTAVYYCAADARPYESPYYYWGQGTQVTVSS | high polyreactivity |
| QVQLVESGGGLVQAGGSLRLSCAASGFIFSYYTMGWYRQAPGKERELVAAISRNGGSTYYADSVKGRFTISRDNAKNTVYLQMNSLKPEDTAVYYCAKRVFNYQRYDYWGQGTQVSVSS | high polyreactivity |
| QVQLVESGGGLVQAGGSLRLSCAASGSTFTANAMGWYRQAPGKERELVAAITNSDGSTYYADSVKGRFTISRDNAKNTVYLQMNSLKPEETAVYYCAKDYYACYWEMDYWGLGTQVTVSS | low polyreactivity |
| QFQLVESGGGLVQAGGSLRLSCAASGRIFVRYAMGLYRKAPGKERELVAAISKSGGSTYYADSVKGRFTISRDNAKNTVYLQMNSLKPEDTAVYYCNALVRRRPGYIRYDYWGQGTQVTVSS | low polyreactivity |
| QVQLVESGGGLVQAGGSLRLSCAASGSIFDDYAMGWYRQAAGKERELVAAITWNGGSTYADSVKGRFTISRDYAKNTVYLQMHSLKPEDTAVYYCNRGGAFNTRNEITRYGYWGQGTQVTVSS | low polyreactivity |
| QVQLVESGGGLVQAGGSLRLSCAASGSILIYNAMGWYRQAPGKERELVAGISRRGASTYYADSVKGRFTISRDNAKNTVYLQMNSLKPEDTAVYYCAALGKYIVAWSGDYWGHGTQVTVSS | low polyreactivity |
| QVQLVDSGGGLVQAGGSLRLSCAASGSTFDAYAMGWYRQAPGKERELVAGISSGGSYEYAESVKGRFTISRDNAKNTVYVQMNSLKPEDTAVYYCAADSRQSDYYYQPTKFDYWGQGTQVTVSS | low polyreactivity |

| Sequence | polyreactivity (PSR sort gate) |
| --- | --- |
| QVQLVESGGGLVQAGGSLRFSCAASGSIFDYNAMGWYRQAPGKERELVAAIDWSGSSTYYADSVKGRFTISRDNAKNTVYLQMNSLKPEDTAVYYCNALAYYGMDYWGQGTQVTVSS | low polyreactivity |
| QVQLVESGGGIVQAGGSLRLSCAASGRTFYRNAMGWYIHAPGKERELVAAITSGGSTYYADSVKGRFTISRDNAKNSGYLQMNCLKPEDTAVYYCAALRHALRYDYWGQGTQVTVSS | low polyreactivity |
| QVQLVESGGGLVQAGGSLRLSCAASGSITSNVMGWYRQAPGKEMELVAAISRGGGSTYYADSVKGRFTISRDNAKNTVYLQMNSLKPEDTAVFYCAADVWGGLLPGYDYWGQGTQVTVSS | high polyreactivity |
| QGQHVESGGGLVHAGGSLRLSCAASGSIFPYYAMGWYRQRPGKERELVAAITDCGSTNYADSVKGRFTISRDNAKNTVYLQMNSLKPEDTAVYYCNKLAGYYDYDYWGQCTQVTVSS | low polyreactivity |
| QVQLVESGGGLVQAGGSLRLSCAASGSIFRYNAMGWYRQAPGKERELVAAISLNTGSTYYADSVKGRFTISRDNAKNTVYLQMNSLKPEDTAVYYCNADDYTYATYEYDYWGQGTQVTVSS | low polyreactivity |
| QVQLVESGGGLVQEGGSLRLSCAASGSTFEYNAMGWYRQAPGKERELVADISWRGGGTYYADSVKGRFTISRDNAKNTVYLQMNSLKPEDTAVYYCNTVSRNGFYRTRHDYWGQGTQVTVSS | low polyreactivity |
| QVQLVESGGGLVQAGGSLRLSCAASGFIFYDYAMGWYRQAPGKERELVAAISSGGSTNYADSVKGRFTISRDNAKNTVYLQMNSLIPEDTEVYYCAADDRSYATWKRDYDYWGQGTQVTVSS | low polyreactivity |
| QVQLVESGGGLVQAGGSLRLSCAASGYTFQGYAMGWYRQAPGKERELVAGISRSGGRTYYADSVKGRFTISRDNAKNTVYLQMNSLKPEDTAVYYCAASYQVRYDYWGQGTQVTVSS | high polyreactivity |
| QVQLVESGGGLVQAGGSLRLSCAASGFTFSWYAMGWYRQAPGKERELVAAITSGGSTYYADSVKGRFTLSRDNAKNTVYLQMISLKPEDTAVYYCNKAFASIAPVWSGYDFWGQGTQVTVSS | low polyreactivity |
| QVQLVDSGGGLVQAGGSLRLSCAASGITSHYYAMGWYRQAPGKERELVAAITSSGSTYYADSVKGRFTISRDNAKNTVYLQMNSLKPEVTAVYYCATTVWYKKAPYPDGDYWGQGTQVTVSS | low polyreactivity |
| QVQLVESGGGLVQAGGSLRLSFAASGRIFRSYAMGWYRQAPGKERELVAAITSGGSTYYADSVKGRFTISRDNAKNTVYLQLNSLKPEDTAVYYCNADYDVSSPRPAFDYWGQGTQVTVSS | low polyreactivity |
| QVQLVESGGGLVQAGGSLRLSCAASGRTFGRYAMGWYRQAPGKERELVATITSGGSTNYADSVKGRFTISRDNAKNTVYLQMNSLKPEDTAVYYCAADVKRDRVWGGDYWGQGTQVTVSS | low polyreactivity |
| QVQLVDSGGGLVQAGGSLRLSCPASGITLNHYVMGWYRQAPAKETELVAAISSSGGSTYYADSVKGRFTISRDNAMITVYLQMNSLKPEDTAVYYCAKDYNGRYTWRYEYWGQGTQVTVSS | high polyreactivity |
| QVQLVESGGGLVQAGGSLRLSCAASGSTFPGNAMGWYRQAPGKERELVASISGGGDSTYYADSVKGRFTISRDYAKNTVYLQMNSLKPEDTAVYYCAADYRQEPGYTGYYYWGQGTQVTVSS | low polyreactivity |
| QVQLVESGGGLVQAGGSLRLSCAASGRTFFKYVMGWSRQAPGKERELVAAITWNGGRTNYADSVKGRFTISRDYAKNTVYLQMNSLKPEDTAVYYCAAVTSVNPSVFNGNYWGQGTQVTVSS | low polyreactivity |
| QVQLVESGGGLVQAGGSLRLSCAASGLTLSGYAMGWYRQAPGKERELVAAISYTGGSTYYADSVKGRFTISRDNAKNTVYLQMNSLKPEDTAVYYCAARAGSRSFDYWGQGTQVTVSS | high polyreactivity |
| QVQLVESGGGLVQAGGSLSLSCAASGSTFTYYDMGWYRQAPGKERELVAAISSSGGRTYYSDSVKGRFTISRDNAKNTVYLQMNSLKPEDTAVYYCARVVRPTDGDYWGQGTQVTVSS | high polyreactivity |
| QVQLVESGGGLVQAGGSLRLSCAASGITFRYYAMGWYRQAPGKERELVADINRGSDTNYADSVKGRFTISRDNAKNTVYLQMNSLKPEDTAVYYCNAYWQGYGYDYWGQGTQVTVSS | low polyreactivity |
| QVQLVESGGGLVQAGGSLRLSCAASGLTLYGYTMGWYRQAPGKERELVATITTGGDSTYYADSVKGRFTISRDNAKNTVYLQMNSLKPEDTAVYYCAAYSYGWDYSYDYWGQGTQVTVSS | low polyreactivity |
| QDQLVESGGGLVQAGGSLRLSCAASGRISPRYAMGWYRQAPGKERELVAAIDTSDGTTYFADSVKGRFTISRDNAKNTVYLQMNSLKPEDTAVYYCAAEGQLFDLYDYWGQGTQGTVSS | low polyreactivity |
| QVQLVESGGGLVQAGGSLRLSCAASGSIFSWYTMGWYRQAPGKERELVAAISRRGGSTYYADSVKGRFTISRDNAKNTVFLQMNSLKPEDNAVYYCAAAHPATRYDYWGQGTQVTVSS | high polyreactivity |

Source: the nanobody polyreactivity screen of Harvey et al. (2022)
